From article PMC2929395 come the findings set out here.

Substrate in this series: CC(C)(CO)[C@@H](O)C(=O)NCCC(=O)O
Put plainly: purified protein, by the assay type. Conditions: pH 7.5, 37.0 °C.

B1: PanK3(S195V) (Homo sapiens; S195V) (protein)
chain: MKIKDAKKPSFPWFGMDIGGTLVKLSYFEPIDITAEEEQEEVESLKSIRKYLTSNVAYGSTGIRDVHLELKDLTLFGRRGNLHFIRFPTQDLPTFIQMGRDKNFSTLQTVLCATGGGAYKFEKDFRTIGNLHLHKLDELDCLVKGLLYIDSVSFNGQAECYYFANASEPERCQKMPFNLDDPYPLLVVNIGSGVVILAVHSKDNYKRVTGTSLGGGTFLGLCSLLTGCESFEEALEMASKGDSTQADKLVRDIYGGDYERFGLPGWAVASSFGNMIYKEKRESVSKEDLARATLVTITNNIGSVARMCAVNEKINRVVFVGNFLRVNTLSMKLLAYALDYWSKGQLKALFLEHEGYFGAVGALLGLPNFS
In the case of B1, the Km – broadly, the substrate concentration at which the rate is half of its maximum – (other: substrate) is on record as 151 ± 16 µM.

B2: PanK3 (Homo sapiens) (protein)
chain: MKIKDAKKPSFPWFGMDIGGTLVKLSYFEPIDITAEEEQEEVESLKSIRKYLTSNVAYGSTGIRDVHLELKDLTLFGRRGNLHFIRFPTQDLPTFIQMGRDKNFSTLQTVLCATGGGAYKFEKDFRTIGNLHLHKLDELDCLVKGLLYIDSVSFNGQAECYYFANASEPERCQKMPFNLDDPYPLLVVNIGSGVSILAVHSKDNYKRVTGTSLGGGTFLGLCSLLTGCESFEEALEMASKGDSTQADKLVRDIYGGDYERFGLPGWAVASSFGNMIYKEKRESVSKEDLARATLVTITNNIGSVARMCAVNEKINRVVFVGNFLRVNTLSMKLLAYALDYWSKGQLKALFLEHEGYFGAVGALLGLPNFS
On to B2, for which the Km (other: wild-type PanK3, substrate) is recorded as 14 ± 0.1 µM.
